The nature of data set [1]: Oral bioavailability of hydrocodone conjugates in rats. To be noted: for bioavailability (% HC) oral AUC / bioavailability (% HC) oral Cmax: rats, relative to hydrocodone; for Oral:IN Index AUC: ratio of oral to intranasal AUC (% HC); for Oral:IN Index Cmax: ratio of oral to intranasal Cmax (% HC).
Data set [2] can be described thus: Intranasal bioavailability of hydrocodone conjugates in rats. To be noted: relative to hydrocodone.

This is an account of results in patent US20080090771A1, “ABUSE-RESISTANT H[…], COMPOSITIONS AND METHODS OF USING THE SAME” (SHIRE LLC, priority 2006, published 2008).

No end group written: not given here.

Take “Asp-Asp-Asp-Asp-Ile-HC (DDDDI-hydrocodone)”: in data set [1], the “bioavailability (% HC) oral AUC” value was found to be 79 % HC, the “bioavailability (% HC) oral Cmax” value was 110 % HC, the “Oral:IN Index AUC” value stood at 2.19 and the “Oral:IN Index Cmax” value is 1.72. Also, in data set [2], the “bioavailability (% HC) IN AUC” value is reported as 36 % HC and the “bioavailability (% HC) IN Cmax” value came out at 64 % HC.

With “Asp-Asp-Gly-Gly-Ile-HC (DDGGI-hydrocodone)”, in data set [1], the “bioavailability (% HC) oral AUC” value is 82 % HC, the “bioavailability (% HC) oral Cmax” value worked out at 80 % HC, the “Oral:IN Index AUC” value turned out to be 1.71 and the “Oral:IN Index Cmax” value turned out to be 1.19. In data set [2], the “bioavailability (% HC) IN AUC” value came out at 48 % HC and the “bioavailability (% HC) IN Cmax” value amounted to 67 % HC.

For Asp-Asp-Ile-HC, in data set [1], the “bioavailability (% HC) oral AUC” value stood at 280 % HC, the “bioavailability (% HC) oral Cmax” value worked out at 238 % HC, the “Oral:IN Index AUC” value was found to be 4.75 and the “Oral:IN Index Cmax” value is recorded as 2.56. In addition, in data set [2], the “bioavailability (% HC) IN AUC” value is 59 % HC and the “bioavailability (% HC) IN Cmax” value is 93 % HC.

For “Asp-Asp-Phe-Phe-Ile-HC (DDFFI-hydrocodone)”, in data set [1], the “bioavailability (% HC) oral AUC” value is 115 % HC, the “bioavailability (% HC) oral Cmax” value was 167 % HC, the “Oral:IN Index AUC” value is 2.05 and the “Oral:IN Index Cmax” value is recorded as 2.69. Moreover, in data set [2], the “bioavailability (% HC) IN AUC” value is 56 % HC and the “bioavailability (% HC) IN Cmax” value was found to be 62 % HC.

Regarding “Asp-Asp-Pro-Pro-Ile-HC (DDPPI-hydrocodone)”, in data set [1], the “bioavailability (% HC) oral AUC” value was 92 % HC, the “bioavailability (% HC) oral Cmax” value is reported as 95 % HC, the “Oral:IN Index AUC” value was 2.04 and the “Oral:IN Index Cmax” value turned out to be 1.19. For the same substance, in data set [2], the “bioavailability (% HC) IN AUC” value was found to be 45 % HC and the “bioavailability (% HC) IN Cmax” value is given as 80 % HC.

Take “Glu-Glu-Asp-Asp-Ile-HC (EEDDI-hydrocodone)”: in data set [1], the “bioavailability (% HC) oral AUC” value was found to be 108 % HC, the “bioavailability (% HC) oral Cmax” value is given as 129 % HC, the “Oral:IN Index AUC” value worked out at 2.04 and the “Oral:IN Index Cmax” value was found to be 1.59. Further, in data set [2], the “bioavailability (% HC) IN AUC” value was 53 % HC and the “bioavailability (% HC) IN Cmax” value worked out at 81 % HC.

For the substance “Glu-Glu-Gly-Gly-Ile-Hydrocodone (EEGGI-hydrocodone) [Glu-Glu-Gly-Gly-Ile-HC]”, in data set [1], the “bioavailability (% HC) oral AUC” value worked out at 81 % HC and the “bioavailability (% HC) oral Cmax” value amounted to 77 % HC. In addition, in data set [2], the “bioavailability (% HC) IN AUC” value stood at 50 % HC and the “bioavailability (% HC) IN Cmax” value came to 56 % HC.

Regarding “Glu-Glu-Gly-Gly-Phe-HC (EEGGF-hydrocodone)”, in data set [1], the “bioavailability (% HC) oral AUC” value was 110 % HC, the “bioavailability (% HC) oral Cmax” value is given as 112 % HC, the “Oral:IN Index AUC” value came out at 1.24 and the “Oral:IN Index Cmax” value stood at 1.15. In addition, in data set [2], the “bioavailability (% HC) IN AUC” value stood at 89 % HC and the “bioavailability (% HC) IN Cmax” value came to 97 % HC.

Consider Glu-Glu-Ile-HC, for which, in data set [1], the “bioavailability (% HC) oral AUC” value stood at 83 % HC, the “bioavailability (% HC) oral Cmax” value is given as 112 % HC, the “Oral:IN Index AUC” value was 1.60 and the “Oral:IN Index Cmax” value turned out to be 1.90. For the same substance, in data set [2], the “bioavailability (% HC) IN AUC” value turned out to be 52 % HC and the “bioavailability (% HC) IN Cmax” value amounted to 59 % HC.

Regarding “Glu-Glu-Phe-Phe-Ile-HC (EEFFI-hydrocodone)”, in data set [1], the “bioavailability (% HC) oral AUC” value was 96 % HC, the “bioavailability (% HC) oral Cmax” value stood at 129 % HC, the “Oral:IN Index AUC” value turned out to be 1.41 and the “Oral:IN Index Cmax” value is 1.70. In data set [2], the “bioavailability (% HC) IN AUC” value is 68 % HC and the “bioavailability (% HC) IN Cmax” value is on record as 76 % HC.

For the substance “Glu-Glu-Phe-Phe-Phe-Hydrocodone (EEFFF-hydrocodone) [Glu-Glu-Phe-Phe-Phe-HC]”, in data set [1], the “bioavailability (% HC) oral AUC” value came out at 83 % HC, the “bioavailability (% HC) oral Cmax” value is 89 % HC, the “Oral:IN Index AUC” value was determined as 3.07 and the “Oral:IN Index Cmax” value is 1.89. Further, in data set [2], the “bioavailability (% HC) IN AUC” value was 27 % HC and the “bioavailability (% HC) IN Cmax” value was 47 % HC.

Consider “Gly-Gly-Glu-Glu-Ile-HC (GGEEI-hydrocodone)”, for which, in data set [1], the “bioavailability (% HC) oral AUC” value is on record as 96 % HC, the “bioavailability (% HC) oral Cmax” value was determined as 119 % HC, the “Oral:IN Index AUC” value is reported as 1.45 and the “Oral:IN Index Cmax” value is 1.55. In data set [2], the “bioavailability (% HC) IN AUC” value is 66 % HC and the “bioavailability (% HC) IN Cmax” value is listed as 77 % HC.

With “Gly-Gly-Pro-Pro-Ile-HC (GGPPI-hydrocodone)”, in data set [1], the “bioavailability (% HC) oral AUC” value is on record as 94 % HC, the “bioavailability (% HC) oral Cmax” value is on record as 121 % HC, the “Oral:IN Index AUC” value is 2.14 and the “Oral:IN Index Cmax” value came out at 2.16. For the same substance, in data set [2], the “bioavailability (% HC) IN AUC” value turned out to be 44 % HC and the “bioavailability (% HC) IN Cmax” value is recorded as 56 % HC.

With Leu-Pro-Phe-HC, in data set [1], the “bioavailability (% HC) oral AUC” value came out at 106 % HC, the “bioavailability (% HC) oral Cmax” value turned out to be 125 % HC, the “Oral:IN Index AUC” value amounted to 1.28 and the “Oral:IN Index Cmax” value is on record as 1.24. In data set [2], the “bioavailability (% HC) IN AUC” value was found to be 83 % HC and the “bioavailability (% HC) IN Cmax” value worked out at 101 % HC.

Regarding “Lys-Lys-Asp-Asp-Ile-HC (KKDDI-hydrocodone)”, in data set [1], the “bioavailability (% HC) oral AUC” value is 90 % HC, the “bioavailability (% HC) oral Cmax” value was found to be 121 % HC, the “Oral:IN Index AUC” value was found to be 2.31 and the “Oral:IN Index Cmax” value amounted to 2.16. In data set [2], the “bioavailability (% HC) IN AUC” value came out at 39 % HC and the “bioavailability (% HC) IN Cmax” value was found to be 56 % HC.

Regarding Lys-Lys-Ile-HC, in data set [1], the “bioavailability (% HC) oral AUC” value was 80 % HC, the “bioavailability (% HC) oral Cmax” value is reported as 76 % HC, the “Oral:IN Index AUC” value came out at 1.18 and the “Oral:IN Index Cmax” value was found to be 0.81. In data set [2], the “bioavailability (% HC) IN AUC” value worked out at 68 % HC and the “bioavailability (% HC) IN Cmax” value worked out at 94 % HC.

With “Lys-Lys-Pro-Pro-Ile-HC (KKPPI-hydrocodone)”, in data set [1], the “bioavailability (% HC) oral AUC” value was 80 % HC, the “bioavailability (% HC) oral Cmax” value came out at 76 % HC, the “Oral:IN Index AUC” value was 1.18 and the “Oral:IN Index Cmax” value is 0.81. Besides, in data set [2], the “bioavailability (% HC) IN AUC” value came out at 68 % HC and the “bioavailability (% HC) IN Cmax” value is 94 % HC.

Pro-Ile-Ile-HC: in data set [1], the “bioavailability (% HC) oral AUC” value came to 104 % HC, the “bioavailability (% HC) oral Cmax” value stood at 99 % HC, the “Oral:IN Index AUC” value was found to be 1.21 and the “Oral:IN Index Cmax” value is 0.97. In data set [2], the “bioavailability (% HC) IN AUC” value is 86 % HC and the “bioavailability (% HC) IN Cmax” value was 102 % HC.

Regarding Pro-Leu-Ile-HC, in data set [1], the “bioavailability (% HC) oral AUC” value is 141 % HC, the “bioavailability (% HC) oral Cmax” value came to 172 % HC, the “Oral:IN Index AUC” value was 1.62 and the “Oral:IN Index Cmax” value is recorded as 1.70. For the same substance, in data set [2], the “bioavailability (% HC) IN AUC” value turned out to be 87 % HC and the “bioavailability (% HC) IN Cmax” value is 101 % HC.

As to Pro-Pro-Leu-HC, in data set [1], the “bioavailability (% HC) oral AUC” value was 94 % HC, the “bioavailability (% HC) oral Cmax” value is on record as 108 % HC, the “Oral:IN Index AUC” value is 2.04 and the “Oral:IN Index Cmax” value turned out to be 2.25. In data set [2], the “bioavailability (% HC) IN AUC” value was 46 % HC and the “bioavailability (% HC) IN Cmax” value amounted to 48 % HC.

Take Tyr-Tyr-Ile-HC: in data set [1], the “bioavailability (% HC) oral AUC” value is 145 % HC, the “bioavailability (% HC) oral Cmax” value is reported as 234 % HC, the “Oral:IN Index AUC” value is recorded as 7.25 and the “Oral:IN Index Cmax” value worked out at 6.88. Moreover, in data set [2], the “bioavailability (% HC) IN AUC” value came out at 20 % HC and the “bioavailability (% HC) IN Cmax” value is listed as 34 % HC.

For Tyr-Tyr-Phe-Phe-Ile-HC, in data set [1], the “bioavailability (% HC) oral AUC” value amounted to 113 % HC, the “bioavailability (% HC) oral Cmax” value is on record as 63 % HC, the “Oral:IN Index AUC” value was determined as 4.35 and the “Oral:IN Index Cmax” value worked out at 1.85. In addition, in data set [2], the “bioavailability (% HC) IN AUC” value is given as 26 % HC and the “bioavailability (% HC) IN Cmax” value amounted to 34 % HC.

As to “Tyr-Tyr-Pro-Pro-Ile-HC (YYPPI-hydrocodone)”, in data set [1], the “bioavailability (% HC) oral AUC” value came to 218 % HC and the “bioavailability (% HC) oral Cmax” value is given as 213 % HC. In addition, in data set [2], the “bioavailability (% HC) IN AUC” value worked out at 10 % HC and the “bioavailability (% HC) IN Cmax” value turned out to be 10 % HC.
